Reference: patent US8652467B2, “Dek protein compositions and methods of using the same” (The Regents of the University of Michigan, priority 2005, dated 2014)
“Also recorded” adds a separate entry of the source.

What was measured:
[1] = test system: purified neutrophils (PMN); assay: In vitro migration assay with purified neutrophils; format: cell-based, human; settings: various concentrations of recombinant DEK in lower chamber; 79 nM vs control
Method: Purified neutrophils (PMN) were treated with IL-8 (50 nM), the CXCR2 small molecule inhibitor SB225002 (3 μM), DEK (79 nM), IL-8 plus SB225002, or DEK plus SB225002 for 5 min at room temperature before and then during the migration assay. After 1 h, the number of fluorescently labeled migrating cells in the lower chamber was determined at 485 nM/535 nm wavelengths by Tecan GENios (Phenix, Austria). […] The results are expressed as the average fold increase in the number of cells migrating toward DEK compared to control wells containing medium only. White blood cells were isolated from venous blood from healthy donors as described above, and were depleted of monocytes by adherence to plastic for 2 h as described in the Cell Preparation section. […] The cells were washed and resuspended at 1×10^6 cells/ml in serum-free RPMI medium, and 1×10^5 labeled cells in 100 μl were added to the upper chamber of a 24-well Transwell chemotaxis insert with pore size of 3 μm or 5 μm (Corning, N.Y.). The lower chambers contained serum-free RPMI medium alone, recombinant DEK made in baculovirus, or a deletion mutant of the β form of human GLI-2 (See, e.g., Smith et al., J Virol 75, 2301-13 (2001)) produced in baculovirus as the control protein. After 30 min to 1 h, the number of fluorescently labeled migrating cells in the lower chamber was determined at […] wavelength using a Tecan GENios plate-reader (Phenix, Austria). The results were expressed as the average fold increase of the number of cells migrating toward lower chambers containing DEK divided by the number of cells migrating toward the control wells (medium alone). Forty ml of venous blood was collected from healthy volunteers into a 50 ml sterile syringe containing a mixture of 7 ml 0.25 M Citrate (0.17 M NA Citrate and 0.083 M Citric Acid) and 6% Dextran in PBS buffer. The blood was incubated for 30 min at room temperature and the upper phase was collected and further separated by Ficoll as described above. The neutrophil fraction was collected and washed with HBSS buffer and then pelleted again. […]

neutrophils = assay: Neutrophil migration into the peritoneum after intraperitoneal injection; format: in vivo, C57BL6 mice; settings: 50 μg intraperitoneal, 8 h following injection, vs GLI-2 and PBS controls
Method: (A). Purified neutrophils were placed in the upper chambers of a 24-well chemotaxis microchamber plate with pore size of 3 μM or 5 μM. Lower chambers contained RPMI medium with various concentrations of recombinant DEK, as indicated. The bar labeled “control” contained only media in the lower chamber. The bar labeled “DEK up” had DEK in the upper chamber and media in the lower chamber. […] (B). Groups of mice received intraperitoneal injections of either PBS or 50 μg of either LPS, recombinant DEK, or a recombinant protein control prepared in parallel to DEK in baculovirus (an isoform of human GLI-2). Twenty mice were tested in each of the four groups. Half of the mice in each group were sacrificed after 4 hours (white bars), and the other half at 8 hours (black bars) after intraperitoneal injection, and then subjected to peritoneal lavage. The bars represent the average number of neutrophils migrating into the peritoneum of each group of mice.
In order to confirm that DEK is a chemoattractant, an in vivo murine model was used. Four groups of twenty 4-6 week old male C57BL6 mice were injected intraperitoneally with 50 μg of DEK, 50 μg of a recombinant control protein also prepared in baculovirus (GLI-2) (See, e.g., Smith et al., J Virol 75, 2301-13 (2001)), 50 μg of LPS, or PBS alone.

B1: DEK: full-length recombinant DEK protein produced in baculovirus (protein, UniProt P35659 1-375, looked up)
chain: MSASAPAAEGEGTPTQPASEKEPEMPGPREESEEEEDEDDEEEEEEEKEKSLIVEGKREKKKVERLTMQVSSLQREPFTIAQGKGQKLCEIERIHFFLSKKKTDELRNLHKLLYNRPGTVSSLKKNVGQFSGFPFEKGSVQYKKKEEMLKKFRNAMLKSICEVLDLERSGVNSELVKRILNFLMHPKPSGKPLPKSKKTCSKGSKKERNSSGMARKAKRTKCPEILSDESSSDEDEKKNKEESSDDEDKESEEEPPKKTAKREKPKQKATSKSKKSVKSANVKKADSSTTKKNQNSSKKESESEDSSDDEPLIKKLKKPPTDEELKETIKKLLASANLEEVTMKQICKKVYENYPTYDLTERKDFIKTTVKELIS
modifications: full-length
notes: full-length recombinant DEK protein produced in baculovirus
neutrophil migration toward DEK [1]: statistically significant; also recorded: specifically migrate toward DEK in a dose-dependent manner | neutrophil migration into the peritoneum (neutrophils): significantly increased the infiltration of neutrophils; also recorded: significantly induces neutrophil migration
